These are literature values, as cited in paper PMC8886532.

The target of this data set is kinetochore receptor (KNL1) (Homo sapiens) (UniProt Q8NG31).

pKd: −log10 of the molar value.

Chain of UniProt Q8NG31 (Q8NG31 whole entry): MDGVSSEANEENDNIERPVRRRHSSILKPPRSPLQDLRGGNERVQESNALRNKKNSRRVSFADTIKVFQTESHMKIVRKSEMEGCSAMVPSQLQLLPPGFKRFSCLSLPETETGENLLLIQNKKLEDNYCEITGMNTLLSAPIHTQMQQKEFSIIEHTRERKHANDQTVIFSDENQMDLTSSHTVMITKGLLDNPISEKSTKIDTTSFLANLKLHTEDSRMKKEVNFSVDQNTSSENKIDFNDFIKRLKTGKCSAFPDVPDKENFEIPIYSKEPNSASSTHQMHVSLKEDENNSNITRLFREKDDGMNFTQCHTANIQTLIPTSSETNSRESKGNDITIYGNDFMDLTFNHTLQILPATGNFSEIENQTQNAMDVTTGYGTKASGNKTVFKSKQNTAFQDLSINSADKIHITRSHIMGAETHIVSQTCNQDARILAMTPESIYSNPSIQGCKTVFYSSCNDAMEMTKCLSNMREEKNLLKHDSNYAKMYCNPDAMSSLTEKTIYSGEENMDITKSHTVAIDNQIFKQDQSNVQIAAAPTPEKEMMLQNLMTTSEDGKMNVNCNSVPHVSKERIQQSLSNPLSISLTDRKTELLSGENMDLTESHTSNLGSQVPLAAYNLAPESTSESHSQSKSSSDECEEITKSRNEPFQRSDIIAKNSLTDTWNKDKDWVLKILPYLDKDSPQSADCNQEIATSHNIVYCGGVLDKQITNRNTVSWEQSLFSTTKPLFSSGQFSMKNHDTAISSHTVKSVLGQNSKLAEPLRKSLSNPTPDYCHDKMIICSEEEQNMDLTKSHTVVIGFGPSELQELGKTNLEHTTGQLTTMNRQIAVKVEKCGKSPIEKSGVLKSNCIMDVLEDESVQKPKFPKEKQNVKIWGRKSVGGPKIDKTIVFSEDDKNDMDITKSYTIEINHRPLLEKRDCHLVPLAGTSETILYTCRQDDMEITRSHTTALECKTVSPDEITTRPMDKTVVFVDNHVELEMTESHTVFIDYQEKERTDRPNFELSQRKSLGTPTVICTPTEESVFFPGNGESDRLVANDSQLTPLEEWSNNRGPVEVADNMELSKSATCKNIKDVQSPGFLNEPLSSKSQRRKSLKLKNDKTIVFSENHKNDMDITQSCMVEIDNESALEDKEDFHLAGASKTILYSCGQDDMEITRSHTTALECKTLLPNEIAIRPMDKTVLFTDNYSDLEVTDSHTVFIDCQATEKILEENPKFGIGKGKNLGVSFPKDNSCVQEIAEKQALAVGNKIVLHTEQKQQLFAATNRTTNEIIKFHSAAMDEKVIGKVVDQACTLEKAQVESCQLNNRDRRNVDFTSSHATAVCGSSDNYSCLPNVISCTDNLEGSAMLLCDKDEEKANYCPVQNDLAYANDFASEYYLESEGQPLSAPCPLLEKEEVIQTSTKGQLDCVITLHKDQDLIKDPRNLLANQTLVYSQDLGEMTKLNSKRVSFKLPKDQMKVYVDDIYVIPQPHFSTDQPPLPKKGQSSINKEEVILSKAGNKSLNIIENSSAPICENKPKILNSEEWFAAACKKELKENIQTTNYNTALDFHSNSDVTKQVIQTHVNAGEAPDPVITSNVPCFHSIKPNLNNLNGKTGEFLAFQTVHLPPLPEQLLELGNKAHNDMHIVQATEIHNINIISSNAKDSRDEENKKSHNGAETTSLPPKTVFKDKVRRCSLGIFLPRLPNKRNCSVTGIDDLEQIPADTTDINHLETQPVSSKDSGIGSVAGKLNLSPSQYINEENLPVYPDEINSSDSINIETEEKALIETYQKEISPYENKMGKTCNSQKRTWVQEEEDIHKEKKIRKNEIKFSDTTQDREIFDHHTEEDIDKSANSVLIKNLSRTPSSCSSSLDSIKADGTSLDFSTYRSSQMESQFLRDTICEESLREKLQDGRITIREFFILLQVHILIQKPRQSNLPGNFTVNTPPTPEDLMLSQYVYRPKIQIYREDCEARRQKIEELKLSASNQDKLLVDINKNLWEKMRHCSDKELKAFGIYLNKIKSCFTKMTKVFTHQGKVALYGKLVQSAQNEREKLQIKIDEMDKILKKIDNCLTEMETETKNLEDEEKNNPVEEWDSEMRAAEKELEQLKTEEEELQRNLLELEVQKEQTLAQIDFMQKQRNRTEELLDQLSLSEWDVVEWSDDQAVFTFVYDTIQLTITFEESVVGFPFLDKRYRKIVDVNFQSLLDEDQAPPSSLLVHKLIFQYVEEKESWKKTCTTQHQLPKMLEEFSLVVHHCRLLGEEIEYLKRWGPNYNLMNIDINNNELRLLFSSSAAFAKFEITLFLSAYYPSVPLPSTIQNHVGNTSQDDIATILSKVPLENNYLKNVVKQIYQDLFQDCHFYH

Usually pKd stands for the negative decadic logarithm of the Kd, by convention in mol/L. With BUB1/BUB3 complex (from UniProt O43683), the pKd was 7.00.
